Test results taken from patent US20210147536A1 (MAB VENTURE BIOPHARM, published 2021).

Legend:
[1] = biological target: T1, human LAG-3-6*His tag recombinant fusion protein (human, UniProt P18627 23-450, biotin-labelled in panning and in Example 9); assay: BLI Octet Red96, MV705-3 on AHC sensor, human LAG-3-6*His at 1000 nM, 1:1 model
T1 construct: Bought protein; also called hLAG-3-6*his tag recombinant protein; human LAG-3-his tag recombinant fusion protein
T1 sequence: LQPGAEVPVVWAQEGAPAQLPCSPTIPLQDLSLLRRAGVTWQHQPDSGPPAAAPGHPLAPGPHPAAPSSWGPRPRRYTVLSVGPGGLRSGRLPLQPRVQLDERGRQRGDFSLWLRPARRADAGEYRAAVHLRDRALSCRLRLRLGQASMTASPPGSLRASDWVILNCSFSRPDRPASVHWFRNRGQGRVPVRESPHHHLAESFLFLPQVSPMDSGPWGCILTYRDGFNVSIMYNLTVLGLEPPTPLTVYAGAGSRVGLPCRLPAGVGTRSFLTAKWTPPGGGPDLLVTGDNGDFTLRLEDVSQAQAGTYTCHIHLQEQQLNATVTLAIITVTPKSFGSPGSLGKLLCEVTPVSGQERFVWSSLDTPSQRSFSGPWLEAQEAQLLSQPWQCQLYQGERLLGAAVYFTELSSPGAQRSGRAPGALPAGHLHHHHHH

[2] = biological target: T1, human LAG-3-6*His tag recombinant …; assay: BLI Octet Red96, MV705-3 on AHC sensor, human LAG-3-6*His at 250 nM, 1:1 model
[3] = biological target: T1, human LAG-3-6*His tag recombinant …; assay: BLI (Octet Red96), biotinylated hLAG-3-6*his on SA biosensor, antibody 100 µg/mL in solution, 1:2 binding model
[4] = biological target: T1, human LAG-3-6*His tag recombinant …; assay: as above; remark: listed apart in the source
[5] = biological target: T1, human LAG-3-6*His tag recombinant …; assay: ELISA, antibody coated at 1 µg/ml, human LAG-3-6*His titrated, anti-His HRP; range of three experiments
[6] = biological target: T1, human LAG-3-6*His tag recombinant …; assay: BLI Octet Red96, MV705-3 on AHC sensor, human LAG-3-6*His at 500 nM, 1:1 model
[7] = biological target: T2, human LAG-3 on the cell surface (human, UniProt P18627 23-525); assay: flow cytometry on cells expressing the human LAG-3, PE anti-human IgG; N = 4
T2 construct: whole, on cells; also called cells expressing the human LAG-3
T2 sequence (looked up): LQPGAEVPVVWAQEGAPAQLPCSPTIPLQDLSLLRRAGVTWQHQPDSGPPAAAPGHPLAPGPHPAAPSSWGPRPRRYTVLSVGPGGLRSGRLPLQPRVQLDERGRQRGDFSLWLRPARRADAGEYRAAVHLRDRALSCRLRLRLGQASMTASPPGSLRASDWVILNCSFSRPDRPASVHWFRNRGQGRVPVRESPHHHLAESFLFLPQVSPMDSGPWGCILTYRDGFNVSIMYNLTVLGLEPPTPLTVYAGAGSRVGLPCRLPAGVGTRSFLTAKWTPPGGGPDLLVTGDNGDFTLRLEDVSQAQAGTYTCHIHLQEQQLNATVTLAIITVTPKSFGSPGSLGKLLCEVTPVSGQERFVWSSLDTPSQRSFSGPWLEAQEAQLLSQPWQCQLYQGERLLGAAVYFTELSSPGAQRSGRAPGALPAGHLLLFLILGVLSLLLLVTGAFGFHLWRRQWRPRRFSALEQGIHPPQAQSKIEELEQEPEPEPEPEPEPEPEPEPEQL

[8] = biological target: T1, human LAG-3-6*His tag recombinant …; assay: ELISA, human LAG-3-6*His coated at 1 µg/ml, IgG4 titrated, anti-hIgG HRP
[9] = biological target: T1, human LAG-3-6*His tag recombinant …; assay: SPR BIAcore T200, antibody on CM5 chip, human LAG-3-6*His 0.352 to 45 nM as analyte

B1: anti-human LAG-3 full human monoclonal antibody MV705-3 (antibody, human IgG4, V domains shown)
VH: EVQLLESGAEVKKPGASVKVSCKASGYTFTSYGISWVRQAPGQGLEWMGWISAYNGNTNYAQKLQGRVTMTTDTSTSTAYMELRSLRSDDTAVYYCARDGWWELLRPDDAFDIWGQGTTVTVSS
VL: QLVLTQSPSVSVSPGQTASITCSGDKLGDKYAYWYQQKPGQAPVLVIYYDSDRPSGIPERFSGSNSGNTATLTISRVEAGDEADYYCQVWDSSSDQVVFGGGTQLTVLG
notes: Full IgG4 with lambda light chain; also called MV705-3(DD + DD)
How did the Kd [1] turn out when B1 was run?
The Kd was 1.79 nM.

And the koff [1]?
The koff was 0.000106 s⁻¹.

What about the kon [1] of the same binder?
The kon was 59300 M⁻¹ s⁻¹.

What about the koff [2] of the same binder?
Its koff is less than 1e-07 s⁻¹.

And the kon [2]?
Its kon is 13800 M⁻¹ s⁻¹.

And the Kd [3]?
Its Kd is 3.04 nM.

And the koff [3]?
The koff was 0.000373 s⁻¹.

And the kon [3]?
Its kon is 122000 M⁻¹ s⁻¹.

What about the Kd [4] of the same binder?
Its Kd is 4.83 nM.

What about the koff [4] of the same binder?
Its koff is 0.000442 s⁻¹.

And the kon [4]?
The kon was 91600 M⁻¹ s⁻¹.

And the EC50 [5]?
The EC50 was 0.04 to 0.1 µg/mL.

What about the Kd [6] of the same binder?
The Kd was 2.5 nM.

And the koff [6]?
Its koff is 9.95e-05 s⁻¹.

What about the kon [6] of the same binder?
Its kon is 39900 M⁻¹ s⁻¹.

And the EC50 [7]?
Its EC50 is 0.0023 µg/mL.

What about the EC50 [8] of the same binder?
The EC50 was 0.364 µg/mL.

What about the Kd [9] of the same binder?
Its Kd is 0.00851 nM.

And the koff [9]?
The koff was 9.18e-07 s⁻¹.

And the kon [9]?
The kon was 108000 M⁻¹ s⁻¹.
